Target: T1, IL-1R1 (mouse IL-1R complex on HEK-Blue-IL1R cells) (mouse) (UniProt P13504)
T1 sequence: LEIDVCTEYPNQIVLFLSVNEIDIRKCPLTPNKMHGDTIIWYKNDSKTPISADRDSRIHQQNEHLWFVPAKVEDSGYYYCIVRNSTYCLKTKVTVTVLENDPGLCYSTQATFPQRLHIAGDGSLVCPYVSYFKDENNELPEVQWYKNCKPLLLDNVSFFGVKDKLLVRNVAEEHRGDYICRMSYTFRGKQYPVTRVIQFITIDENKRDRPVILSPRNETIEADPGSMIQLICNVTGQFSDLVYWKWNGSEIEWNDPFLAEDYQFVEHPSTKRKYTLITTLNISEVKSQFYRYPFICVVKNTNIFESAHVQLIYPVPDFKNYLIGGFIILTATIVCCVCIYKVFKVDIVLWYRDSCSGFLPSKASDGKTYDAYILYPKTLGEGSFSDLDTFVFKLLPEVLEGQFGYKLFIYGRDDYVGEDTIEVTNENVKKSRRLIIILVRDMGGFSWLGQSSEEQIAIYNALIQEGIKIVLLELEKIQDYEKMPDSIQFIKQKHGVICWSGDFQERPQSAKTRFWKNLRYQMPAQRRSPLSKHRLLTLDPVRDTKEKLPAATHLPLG

For “human IL-1β mutant Q148G (from UniProt P01584 117-269) (ligand)”, the NF-κB-driven expression of a luciferase reporter in HEK-Blue-IL1R cells; fold reduction in activity compared with WT IL-1β was 168 fold.
